The values below are quoted from earlier work in paper PMC4888498.

Data set [1] has as its target T1, TvFL3 Thermoplasma volcanium (Thermoplasma volcanium GSS1) (UniProt Q979L0).
T1 sequence: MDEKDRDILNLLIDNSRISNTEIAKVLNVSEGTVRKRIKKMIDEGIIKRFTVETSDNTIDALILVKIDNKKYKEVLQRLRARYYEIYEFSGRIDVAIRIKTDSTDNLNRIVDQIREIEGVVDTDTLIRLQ
Briefly: EMSA. On the technique in general: In EMSA bound probe runs differently from free probe, usually more slowly.

The target in data set [2] is T2, Ss-LrpB Sulfolobus solfataricus (Saccharolobus solfataricus P2) (UniProt Q7LX67).
T2 sequence: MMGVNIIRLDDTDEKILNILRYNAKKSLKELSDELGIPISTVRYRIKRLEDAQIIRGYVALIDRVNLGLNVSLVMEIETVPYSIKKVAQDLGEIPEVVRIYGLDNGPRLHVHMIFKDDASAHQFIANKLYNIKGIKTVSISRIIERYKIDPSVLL
The data set can be described thus: EMSA.

As to “GAAATTAATACGACTCACTATGGGGAGAGAGACGGACGAAATTCGTCCCTGTGTGTCGCTAGTTATTGCTCAGCGGTGG (double strand) [19468044-FFRP-2]”, the Ka in data set [1] is 9e+06 M⁻¹.

In the case of “GAAATTAATACGACTCACTATGGGGAGAGAGACGGTCGAAATTCGACCCTGTGTGTCGCTAGTTATTGCTCAGCGGTGG (double strand) [19468044-FFRP-4]”, the Ka in data set [1] was 7.3e+06 M⁻¹.

As to “GAAATTAATACGACTCACTATGGGGAGAGAGACGTACGAAATTCGTACCTGTGTGTCGCTAGTTATTGCTCAGCGGTGG (double strand) [19468044-FFRP-1]”, the Ka in data set [1] was 1.28e+07 M⁻¹.

For “GAAATTAATACGACTCACTATGGGGAGAGAGACGTTCGAAATTCGAACCTGTGTGTCGCTAGTTATTGCTCAGCGGTGG (double strand) [19468044-FFRP-3]”, in data set [1], the Ka is 8.2e+06 M⁻¹.

Regarding “GAAATTAATACGACTCACTATGGGGAGAGAGACTTGCAAAATTTGCAACTGTGTGTCGCTAGTTATTGCTCAGCGGTGG (double strand) [19468044-FFRP-7]”, the Ka in data set [2] is 3.5e+07 M⁻¹.
